Assay results from publication PMC3755989, “Identification of Amino Acid Residues of ERH Required for Its Recruitment to Nuclear Speckles and Replication Foci in HeLa Cells” (PLoS ONE, 2013).

Target: T1, FLAG-tagged wild-type human ERH (enhancer of rudimentary homolog) (human, UniProt P84090 1-104)
T1 construct: wild-type human ERH, expressed from pQE30/ERH-FLAG (formerly pQE30/ER-FLAG); also called ERH-FLAG; wild-type ERH
Assay: pull-down; GST-PDIP46/SKAR[L7]- or GST-Ciz1[B]-coated Glutathione-Agarose beads incubated with equal amounts of purified FLAG-tagged ERH forms; binding buffer 20 mM HEPES pH 7.4, 50 mM NaCl, 75 mM KCl, 1 mM DTT, 1 mM EDTA, 10% glycerol, 0.05% Triton X-100; western blotting with anti-FLAG antibody
Conditions: both partners purified

binding result: binds
B1: GST-tagged fragment L7 of human PDIP46/SKAR (domain or fragment)
chain: NKEEPPKELPAAEPVLSPLEGTKMTVNNLHPRVTEEDIVELFCVCGALKRARLVHPGVAEVVFVKKDDAITAYKKYNNRCLDGQPMKCNLHMNGNVITSDQPILLRLSDSPSMKKESELPRRVNSASSSNPPAEVDPDTILKALFKSSGASVTTQPTEFKIKL
notes: fragment L7 of human PDIP46/SKAR comprising residues 259-421, expressed from pGEX-4T-1/PDIP46/SKAR[L7]; also called GST-PDIP46/SKAR[L7]; PDIP46/SKAR[L7]; source: E. coli XL1 Blue MRF', batch purified on Glutathione-Agarose beads
